Drawing on patent US20110281938A1, this text covers rate of FXa generation for 1 substance.

This assay addresses tissue factor:FVIIa complex (TF:FVIIa) (UniProt P13726). As to the kind of experiment: cell-based or functional assay.

Sequence of tissue factor:FVIIa complex (TF:FVIIa) (P13726 33-295 limits assumed, chain 1 of 2): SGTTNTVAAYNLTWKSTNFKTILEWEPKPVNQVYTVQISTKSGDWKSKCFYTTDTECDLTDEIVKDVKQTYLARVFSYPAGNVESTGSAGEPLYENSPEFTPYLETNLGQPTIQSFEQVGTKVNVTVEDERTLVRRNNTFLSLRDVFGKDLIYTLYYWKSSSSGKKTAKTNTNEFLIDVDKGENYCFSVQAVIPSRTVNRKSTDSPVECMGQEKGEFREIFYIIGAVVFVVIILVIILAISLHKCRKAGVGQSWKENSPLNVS
Sequence of tissue factor:FVIIa complex (TF:FVIIa) (P08709 61-466 limits assumed, chain 2 of 2, further chain): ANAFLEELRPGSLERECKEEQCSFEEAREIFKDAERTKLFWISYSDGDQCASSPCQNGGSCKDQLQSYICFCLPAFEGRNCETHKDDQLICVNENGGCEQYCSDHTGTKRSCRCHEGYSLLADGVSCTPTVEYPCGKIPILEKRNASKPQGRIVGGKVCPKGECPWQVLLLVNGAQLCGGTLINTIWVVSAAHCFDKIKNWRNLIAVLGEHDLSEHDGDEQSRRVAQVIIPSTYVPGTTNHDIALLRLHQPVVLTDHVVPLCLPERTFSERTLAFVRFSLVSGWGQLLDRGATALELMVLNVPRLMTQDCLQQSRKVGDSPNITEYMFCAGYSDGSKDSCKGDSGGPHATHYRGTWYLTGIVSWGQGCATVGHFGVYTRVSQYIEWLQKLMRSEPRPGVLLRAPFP

“TFPI (source and species not stated; Examples 8, 12 and 45) (from UniProt P10646 29-304)” came in with a rate of FXa generation at 4 minutes, extrinsic tenase (Xase) inhibition assay, 1 nM TFPI of 70%.
